Results taken from patent publication US11053304 (CENTIVAX, dated 2021).
Numbering of substitutions follows the chain as printed.

B1: COVID19_P20_G06 (scFv, V domains shown)
VH: EVQLVESGGGLVQPGGSLRLSCAASGFTFSNSDMNWVRQAPGKGLEWVSGISGGGAGTYYADSVKGRFTISRDNSKNTLYLQMNSLRAEDTAVYYCVTYRDNSRDYFPHYFHDMDVWGQGTLVTVSS
VL: DIVMTQSPLSLPVTPGEPASISCRSSQSLVHSNGDTYLDWYLQKPGQSPQLLIYLGSIRAPGVPDRFSGSGSGTDFTLKISRVEAEDVGVYYCQQSYSTPWTFGGGTKVEIKR
B2: COVID19_P20_A11 (scFv, V domains shown)
VH: B1 VH with N31S, S32Y, D33A, N35H, G50A, G54S, A56D, G57N, Y99N, R100M
VL: not shown
B3: COVID19_P19_B09 (scFv, V domains shown)
VH: EVQLVESGGGLVQPGGSLRLSCAASGFTFSSHTIAWVRQAPGKGLEWLSHISSSGSTTYYADSVKGRFTISRDNSKNTLYLQMNSLRAEDTAVYYCVTQRDNSRDMSPHYFHDMDVWGQGTLVTVSS
VL: B1 VL with V30L, H31D, D35F, T36N, I58S, S98N
B4: COVID19_P08_D04 (scFv, V domains shown)
VH: B1 VH with T28I, N31S, S32Y, D33A, G54S, A56G, T58A, Y99N, R100L
VL: DIVMTQSPLSLPVTPGEPASISCRSSQSLLQSNGYNYMDWYLQKPGQSPQLLIYLTSNRAAGVPDRFSGSGSGTDFTLKISRVEAEDVGVYYCQQSYGPPLTFGGGTKVEIKR
B5: COVID19_P20_C11 (scFv, V domains shown)
VH: B1 VH with N31S, S32Y, D33S, G54S, A56D, G57R, V97S, T98M, Y99Q
VL: B1 VL with V30L, H31Y, N33D, Q94M, Y97V, S98Q
B6: COVID19_P19_E01 (scFv, V domains shown)
VH: EVQLVESGGGLVQPGGSLRLSCAASGFTFSSYAMHWVRQAPGKGLEWVAVVSRSGGSTFYADSVKGRFTISRDNSKNTLYLQMNSLRAEDTAVYYCVTQRDNSRDYFPHYFHDMDVWGQGTLVTVSS
VL: B1 VL
B7: COVID19_P19_B04 (scFv, V domains shown)
VH: EVQLVESGGGLVQPGGSLRLSCAASGITFNNYAMTWVRQAPGKGLEWVSGISGSGGSTYYADSVKGRFTISRDNSRNTLYLQMNSLRAEDTAVYYCVTQRDNPVDYFPHYFHDMDVWGQGTLVTVSS
VL: B1 VL with V30L, H31Y, N33D, Q94M, S96A, Y97L, S98Q, T99V
B8: COVID19_P19_C03 (scFv, V domains shown)
VH: B1 VH with G50R, S52N, G54D, A56S, G57T, Y59G, Y99T, R100G
VL: B1 VL with V30L, S98I
B9: COVID19_P07_A09 (scFv, V domains shown)
VH: EVQLVESGGGLVQPGGSLRLSCAASGFTFSSYGVHWVRQAPGKGLEWVAVISHDGKKKYYADSVKGRFTISRDNSKNTLYLQMNSLRAEDTAVYYCVTNVDNSRDYFPHYFHDMDVWGQGTLVTVSS
VL: not shown
B10: COVID19_P07_G06 (scFv, V domains shown)
VH: EVQLVESGGGLVQPGGSLRLSCAASGFTFSSYAMHWVRQAPGKGLEWVSAIGAGGGTYYADSVKGRFTISRDNSKNTLYLQMNSLRAEDTAVYYCVTNLDNSRDYFPHYFHDMDVWGQGTLVTVSS
VL: DIVMTQSPLSLPVTPGEPASISCRSSQSLLHSNGYNYLDWYLQKPGQSPQLLIYGASTRATGVPDRFSGSGSGTDFTLKISRVEAEDVGVYYCMQTLQTPRFGGGTKVEIKR
B11: COVID19_P19_C08 (scFv, V domains shown)
VH: EVQLVESGGGLVQPGGSLRLSCAASGFTFSSYAMHWVRQAPGKGLEWVSAISASSAGAYYADSVKGRFTISRDNSKNTLYLQMNSLRAEDTAVYYCVTNMDNSRDYFPHYFHDMDVWGQGTLVTVSS
VL: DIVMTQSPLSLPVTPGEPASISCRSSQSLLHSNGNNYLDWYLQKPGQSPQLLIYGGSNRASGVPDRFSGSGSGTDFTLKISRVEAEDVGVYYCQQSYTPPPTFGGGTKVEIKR
B12: COVID19_P07_F10 (scFv, V domains shown)
VH: B11 VH with A33G, A50G, I51V, S55G, A56G, A58P
VL: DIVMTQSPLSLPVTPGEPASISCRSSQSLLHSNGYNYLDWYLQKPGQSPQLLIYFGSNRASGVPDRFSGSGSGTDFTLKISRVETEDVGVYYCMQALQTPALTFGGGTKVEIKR
B13: COVID19_P19_F02 (scFv, V domains shown)
VH: B11 VH with A33G, I51Y, A53G, S55G, A56G, G57Y, A58T, Y60F
VL: DIVMTQSPLSLPVTPGEPASISCKSSQSLLHINGFNYLDWFLQKPGQSPQLLIYLGSNRAPGVPDRFSGSGSGTDFTLKISRVEAEDVGVYYCQQSLQNPRTFGGGTKVEIKR
B14: COVID19_P08_G02 (scFv, V domains shown)
VH: B11 VH with A33G, V37I, I51V, S55G, A56D, G57R, A58T, Y59H, M100L
VL: DIVMTQSPLSLPVTPGEPASISCRSSQSLVHSDGYTYLNWYLQKPGQSPQLLIYVGSYRASGVPDRFSGSGSGTDFTLKISRVEAEDVGVYYCMQASQWPPTFGGGTKVEIKR
B15: COVID19_P08_C08 (scFv, V domains shown)
VH: B11 VH with S30R, S31N, I51V, A53S, S55G, A56G, G57S, A58P
VL: B14 VL with Y35D, T36N, V55S, A96G, S97T, Q98H, P101L
B16: COVID19_P07_F01 (scFv, V domains shown)
VH: B6 VH with A49S, V50A, S52G, R53D, G56R, F59Y, Q99N, R100L
VL: not shown
B17: COVID19_P08_G07 (scFv, V domains shown)
VH: B11 VH with S31T, A33G, A50T, A53G, S54N, S55G, A56V, G57S, A58T, Y59S
VL: DIVMTQSPLSLPVTPGEPASISCRSSQSLVYSDGYTYLNWYLQKPGQSPQLLIYQVSNRASGVPDRFSGSGSGTDFTLKISRVEAEDVGVYYCMQALQTPALTFGGGTKVEIKR
B18: COVID19_P08_D09 (scFv, V domains shown)
VH: B9 VH with S31T, G33A, V34M, H53Y, K56N, K57Y, K58Q, V100L
VL: not shown

The binders below were run against MERS Receptor Binding Domain (RBD) protein (MERS coronavirus, UniProt K9N5Q8 367-606) (assay: SPR, scFv captured via anti-V5, RBD as analyte).
B1: no binding (tested: up to 300 nM). B2: no binding (tested: up to 300 nM). B3: no binding (tested: up to 300 nM). B4: no binding (tested: up to 300 nM). B5: no binding (tested: up to 300 nM). B6: no binding (tested: up to 300 nM). B7: no binding (tested: up to 300 nM). B8: no binding (tested: up to 300 nM). B9: no binding (tested: up to 300 nM). B10: no binding (tested: up to 300 nM). B11: no binding (tested: up to 300 nM). B12: no binding (tested: up to 300 nM). B13: no binding (tested: up to 300 nM). B14: no binding (tested: up to 300 nM). B15: no binding (tested: up to 300 nM). B16: no binding (tested: up to 300 nM). B17: no binding (tested: up to 300 nM). B18: no binding (tested: up to 300 nM).

These binders were tested against SARS-CoV-1 Receptor Binding Domain (RBD) protein (SARS-CoV-1, UniProt P59594 306-527) (assay: SPR, scFv captured via anti-V5, RBD as analyte).
B1: no binding (tested: up to 300 nM). B2: no binding (tested: up to 300 nM). B3: no binding (tested: up to 300 nM). B4: no binding (tested: up to 300 nM). B5: no binding (tested: up to 300 nM). B6: no binding (tested: up to 300 nM). B7: no binding (tested: up to 300 nM). B8: no binding (tested: up to 300 nM). B9: no binding (tested: up to 300 nM). B10: no binding (tested: up to 300 nM). B11: no binding (tested: up to 300 nM). B12: no binding (tested: up to 300 nM). B13: no binding (tested: up to 300 nM). B14: no binding (tested: up to 300 nM). B15: no binding (tested: up to 300 nM). B16: no binding (tested: up to 300 nM). B17: no binding (tested: up to 300 nM). B18: no binding (tested: up to 300 nM).

These binders were tested against T1, SARS-CoV-2 Receptor Binding Domain (RBD) protein (SARS-CoV-2, UniProt P0DTC2 319-541) (assay: SPR, scFv captured via anti-V5, RBD as analyte).
With B1 the Kd was < 50 nM. For B2, the Kd was < 50 nM. In the case of B3, the Kd is reported as < 50 nM. B4 was tested, and the Kd was < 50 nM. For B5, the Kd was < 50 nM. B6 was tested, and the Kd was < 50 nM. In the case of B7, the Kd is reported as < 50 nM. With B8 the Kd was < 50 nM. B9 was tested, and the Kd was < 50 nM. For B10, the Kd was < 50 nM. B11 was tested, and the Kd was < 50 nM. For B12, the Kd was < 50 nM. With B13 the Kd was < 50 nM. In the case of B14, the Kd is reported as < 50 nM. With B15 the Kd was < 50 nM. B16 was tested, and the Kd was < 50 nM. With B17 the Kd was < 50 nM. B18 was tested, and the Kd was < 50 nM.

Biological target: T1, SARS-CoV-2 Receptor Binding Domain …
Assay: SPR, scFv captured via anti-V5, RBD as analyte
Remark: another data set of the same source
In the case of B1, the Kd is reported as 8.95 nM, the koff is reported as 0.000834 s⁻¹ and the kon is reported as 93200 M⁻¹ s⁻¹. In the case of B2, the Kd is reported as 20.2 nM, the koff is reported as 0.000872 s⁻¹ and the kon is reported as 43100 M⁻¹ s⁻¹. B3 showed a Kd of 15.9 nM, a koff of 0.00313 s⁻¹ and a kon of 197000 M⁻¹ s⁻¹. With B4 the Kd was 0.86 nM, the koff was 5.7e-05 s⁻¹ and the kon was 66000 M⁻¹ s⁻¹. Binder B5 has a Kd of 2.94 nM, a koff of 0.000607 s⁻¹ and a kon of 207000 M⁻¹ s⁻¹. Binder B6 has a Kd of 41.7 nM, a koff of 0.00644 s⁻¹ and a kon of 155000 M⁻¹ s⁻¹. B7 was tested, and the Kd was 22 nM, the koff was 0.00795 s⁻¹ and the kon was 361000 M⁻¹ s⁻¹. Work on B8 yielded a Kd of 35.3 nM, a koff of 0.0058 s⁻¹ and a kon of 164000 M⁻¹ s⁻¹. For B9, the Kd was 1.5 nM, the koff was 5.7e-05 s⁻¹ and the kon was 39100 M⁻¹ s⁻¹. B10 was tested, and the Kd was 1.6 nM, the koff was 5.7e-05 s⁻¹ and the kon was 36300 M⁻¹ s⁻¹. B11 was tested, and the Kd was 27.6 nM, the koff was 0.0047 s⁻¹ and the kon was 170000 M⁻¹ s⁻¹. With B12 the Kd was 8.05 nM, the koff was 0.000483 s⁻¹ and the kon was 60000 M⁻¹ s⁻¹. B13 showed a Kd of 36.1 nM, a koff of 0.00384 s⁻¹ and a kon of 106000 M⁻¹ s⁻¹. Work on B14 yielded a Kd of 2.71 nM, a koff of 0.0001 s⁻¹ and a kon of 38000 M⁻¹ s⁻¹. For B15, the Kd was 1.8 nM, the koff was 5.7e-05 s⁻¹ and the kon was 32000 M⁻¹ s⁻¹. With B16 the Kd was 0.8 nM, the koff was 5.7e-05 s⁻¹ and the kon was 68000 M⁻¹ s⁻¹. With B17 the Kd was 10.6 nM, the koff was 0.00072 s⁻¹ and the kon was 68000 M⁻¹ s⁻¹. In the case of B18, the Kd is reported as 1.5 nM, the koff is reported as 5.7e-05 s⁻¹ and the kon is reported as 38000 M⁻¹ s⁻¹.
